This is an account of results in article PMC6451128, “Structural and functional analysis of the nucleotide and DNA binding activities of the human PIF1 helicase”.

Details in all cases: protein: recombinant; tags: His tag removed, GSRM left; label: 5' 32P (PNK)
The target of one series is T1, hPIF1HD R294A (human, UniProt Q9H611 206-620, R294A).
T1 sequence: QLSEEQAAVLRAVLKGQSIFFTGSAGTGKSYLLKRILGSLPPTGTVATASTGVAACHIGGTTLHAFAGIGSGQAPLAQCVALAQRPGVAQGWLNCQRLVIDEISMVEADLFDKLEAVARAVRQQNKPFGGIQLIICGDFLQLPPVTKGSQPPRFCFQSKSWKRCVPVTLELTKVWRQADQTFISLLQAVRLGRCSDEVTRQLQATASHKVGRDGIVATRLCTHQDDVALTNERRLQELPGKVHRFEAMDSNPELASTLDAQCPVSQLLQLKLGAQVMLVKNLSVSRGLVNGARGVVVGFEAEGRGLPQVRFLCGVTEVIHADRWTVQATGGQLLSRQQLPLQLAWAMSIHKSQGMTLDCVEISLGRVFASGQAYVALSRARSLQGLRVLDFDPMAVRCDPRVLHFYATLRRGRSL
Nature of the series: EMSA; no nucleotide; apparent; 20 mM HEPES-NaOH pH 7.5 (Results say pH 7.2), 135 mM NaCl, 5% glycerol, 1 mM DTT, 1 mg/ml BSA, 20 min at 20 C; 0.4 nM T(35); G4 assay: 0.1 nM G4 DNA, 2% PEG 8000 instead of glycerol, 5 uM T(35) competitor.

A further series deals with T2, hPIF1HD K485E (human, UniProt Q9H611 206-620, K485E).
T2 sequence: T1 sequence with A89R, K280E
The series can be described thus: EMSA; no nucleotide; 20 mM HEPES-NaOH pH 7.5 (Results say pH 7.2), 135 mM NaCl, 5% glycerol, 1 mM DTT, 1 mg/ml BSA, 20 min at 20 C; 0.4 nM T(35); G4 assay: 0.1 nM G4 DNA, 2% PEG 8000 instead of glycerol, 5 uM T(35) competitor. In general terms: A gel shift assay detects complexes by their altered migration in electrophoresis.

Another series deals with T3, hPIF1HD N495A (human, UniProt Q9H611 206-620, N495A).
T3 sequence: T1 sequence with A89R, N290A
The description is as above.

Another series has as its target T4, hPIF1HD R290A (human, UniProt Q9H611 206-620, R290A).
T4 sequence: T1 sequence with R85A, A89R
Nature of the series: EMSA; no nucleotide; apparent, near saturation not reached; 20 mM HEPES-NaOH pH 7.5 (Results say pH 7.2), 135 mM NaCl, 5% glycerol, 1 mM DTT, 1 mg/ml BSA, 20 min at 20 C; 0.4 nM T(35); G4 assay: 0.1 nM G4 DNA, 2% PEG 8000 instead of glycerol, 5 uM T(35) competitor.

Numbering of substitutions follows the chain as printed.

For the molecule TTTTTTTTTTTTTTTTTTTTTTTTTTTTTTTTTTT (ssDNA) [poly-T(35)], the Kd was 5.7 ± 1.6 nM with hPIF1HD R294A and approximately 40.4 nM with hPIF1HD R290A. Moreover, the binding signal in the series with hPIF1HD K485E and with hPIF1HD N495A was > 50 fold decrease in affinity vs WT throughout.
